{"source": "patent US20250326864A1", "about": "(PARADOX IMMUNOTHERAPEUTICS, published 2025)", "binders": {"B1": {"name": "muLX-97 (clone 1) (antibody, V domains shown)", "VH": "DVKLVESGGGLVKLGGSLKLSCAASGFTFSSYYMSWVRQTPEKRLELVAAINSNGGNTYYPDTVKGRFTISRDNAKNTLYLQMSSLKSEDTALYYCARLPFDYWGQGTTLTVSS", "VL": "not shown", "modifications": "Antibody fluorescently labeled in the MST assay; dye and site not stated.", "notes": "Murine monoclonal antibody from a hybridoma, purified from mouse ascites fluid; Fluorescently labeled in the MST assay"}}, "key": {"[1]": {"molecular_target": "T1, misfolded/unfolded Wil λ light chain (human)", "T1 construct": "mature; Soluble misfolded form made from native Wil; Biotinylated in the capture ELISA; also called misfolded Wil; Wil (misfolded)", "test": "microscale thermophoresis, labeled antibody", "method": "(§1) FIGS. 7A and 7B are line graphs illustrating the results of binding of misfolded (FIG. 7A) or amyloid (FIG. 7B) Wil to muLX-97 measured by MST (microscale thermophoresis).\n(§2) Next, the binding affinity of muLX-97 to amyloid forms of λ light chains was determined. A true affinity to aggregates could not be measured using previously described methods where either the antibody or target is immobilized, so microscale thermophoresis (MST) was used. In this method a small spot in a capillary containing fluorescently labeled antibody in the presence or absence of target is irradiated with an infrared laser. The local heating causes migration of protein out of the heated spot and the rate of migration change (due to the antibody binding to a ligand) can be used to measure the affinity. Using the NanoTemper Monolith, binding of muLX-97 to misfolded and amyloid forms of Wil was quantified, with results shown in FIG. 7."}, "[2]": {"molecular_target": "transthyretin (ATTR) amyloid in cardiac tissue (human, UniProt P02766 21-147)", "test": "immunohistochemistry on patient tissue"}, "[3]": {"molecular_target": "T2, islet amyloid polypeptide (IAPP) amyloid in pancreatic tissue (human, UniProt P10997 34-70)", "T2 construct": "Pathological control tissue in immunohistochemistry; also called IAPP amyloid pancreatic tissue", "T2 chain (looked up)": "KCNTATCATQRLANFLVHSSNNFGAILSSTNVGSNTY", "test": "immunohistochemistry on patient tissue"}, "[4]": {"molecular_target": "T1, misfolded/unfolded Wil λ light chain", "test": "capture ELISA, antibody captured by anti-mouse Fc, biotinylated Wil in solution", "from_the_text": "All the candidate mAbs detected both misfolded/unfolded and amyloid/aggregated Wil. […] It was suspected that the Western blotting and indirect ELISA methods, which immobilizes the ‘native’ Wil protein to a surface, can lead to false-positive binding to the native protein by inducing some degree of misfolding, which would not be detected by the clones that bound weakly (clones 3-5). As such, a capture format ELISA was used to interrogate the binding behavior of clones 1 and 2. In this format, a goat anti-mouse Fc capture antibody was coated into the ELISA wells, and clones 1 or 2 are captured by the antibody with their Fabs aligned to the appropriate orientation. Then, native, or misfolded forms of biotinylated Wil is added to these wells and binding is measured by streptavidin. […] Based on the above data, clone 1 was selected as the lead candidate for subsequent characterization (henceforth referred to as muLX-97)."}, "[5]": {"molecular_target": "aggregated/amyloid Wil λ light chain (human)", "test": "cell-based or functional assay"}, "[6]": {"molecular_target": "T3, misfolded H3 λ light chain (human)", "T3 construct": "also called H3 (misfolded)", "test": "bio-layer interferometry", "method": "(§3) FIGS. 6A-6F are bio-layer interferometry sensorgrams of binding interactions between clone 1 (muLX-97) to misfolded (FIGS. 6A, 6B, 6C) and native (FIGS. 6D, 6E, 6F) conformations of Wil (FIGS. 6A, 6D), H3 (FIGS. 6B, 6E), and FOR102 (FIGS. 6C, 6F) lambda light chain variants. Binding of muLX-97 with its misfolded Wil at a range of target concentrations was measured by changes in wavelength (nm) over 720 seconds (120 s association, 600 s dissociation). Association and dissociation curves were fit using Octet Systems Software to determine KD.\n(§4) The binding affinity of muLX-97 to multiple λ light chain variants in misfolded and native conformations was then measured. In addition to Wil, two light chain variants sequenced from cardiac amyloid deposits in light chain amyloidosis patients were selected. See Oberti L et al. Concurrent structural and biophysical traits link with immunoglobulin light chains amyloid propensity. Sci Rep. 2017 Dec. 1; 7(1):16809 and Baur J et al. Identification of AL proteins from 10λ-AL amyloidosis patients by mass spectrometry extracted from abdominal fat and heart tissue. Amyloid. 2023 March; 30(1) 27-37. […] In native conformations of all variants, only weak binding (limited BLI signal, at very high concentration of 1000 nM) was observed. This limited association may be due to the presence of small amounts of misfolded Wil contaminating the ‘native’ sample."}, "[7]": {"molecular_target": "T1, misfolded/unfolded Wil λ light chain", "test": "bio-layer interferometry", "method": "as §3, §4"}, "[8]": {"molecular_target": "T4, misfolded FOR102 λ light chain (human)", "T4 construct": "also called FOR102 (misfolded)", "test": "bio-layer interferometry", "method": "as §3, §4"}, "[9]": {"molecular_target": "T1, misfolded/unfolded Wil λ light chain", "test": "microscale thermophoresis, labeled antibody", "method": "as §1, §2", "remark": "listed apart in the source"}, "[10]": {"molecular_target": "T5, aggregated/amyloid Wil λ light chain (human)", "T5 construct": "mature; Aggregate of many chains; Conjugated to pHrodo in the phagocytosis assay; also called Wil amyloid; amyloid/aggregated Wil", "test": "microscale thermophoresis, labeled antibody", "method": "as §1, §2"}}, "data": [{"binder": "B1", "values": [{"measurement": "Kd", "setting": "[1]", "result": 61.9, "unit": "nM"}, {"measurement": "binding result", "setting": "[2]", "result": "no binding"}, {"measurement": "binding result", "setting": "[3]", "result": "no binding"}, {"measurement": "Kd", "setting": "[4]", "result": 69, "unit": "nM"}, {"measurement": "EC50 of phagocytic uptake of pHrodo-labeled amyloid Wil (% pHrodo-positive cells), J774.1 cells", "setting": "[5]", "result": "~7", "unit": "nM"}, {"measurement": "EC50 of phagocytic uptake of pHrodo-labeled amyloid Wil (% pHrodo-positive cells), RAW 264.7 cells", "setting": "[5]", "result": "~20", "unit": "nM"}, {"measurement": "Kd", "setting": "[6]", "result": 317, "unit": "nM"}, {"measurement": "Kd", "setting": "[7]", "result": 59, "unit": "nM"}, {"measurement": "Kd", "setting": "[8]", "result": 65, "unit": "nM"}, {"measurement": "Kd", "setting": "[9]", "result": 61, "unit": "nM"}, {"measurement": "Kd", "setting": "[10]", "result": 87, "unit": "nM"}]}]}
